Measured values taken from patent publication US20120093826A1.
Substitutions are numbered along the chain they refer to. Blank lines part the entries; values can stand above or below the molecule they belong to.

Key:
[1] = molecular target: human CADM1 (cell surface, on CADM1-expressing human tumour cells and tissues) (human) (UniProt Q9BY67); assay: flow cytometry histogram on SKMEL28 cells, isotype control
[2] = molecular target: human CADM1 (cell surface, on CADM1-expressing human tumour cells and tissues) (human) (UniProt Q9BY67); assay: flow cytometry histogram on 786-0 cells, isotype control
[3] = molecular target: human CADM1 (cell surface, on CADM1-expressing human tumour cells and tissues) (human) (UniProt Q9BY67); assay: cell-based or functional assay
[4] = molecular target: human CADM1 (cell surface, on CADM1-expressing human tumour cells and tissues) (human) (UniProt Q9BY67); assay: flow cytometry on NCI-H69 cells expressing human CADM1
[5] = molecular target: human CADM1 (cell surface, on CADM1-expressing human tumour cells and tissues) (human) (UniProt Q9BY67); assay: flow cytometry (FGMI) titration on 786-O renal cell carcinoma cells; table under the plot
[6] = molecular target: human CADM1 (cell surface, on CADM1-expressing human tumour cells and tissues) (human) (UniProt Q9BY67); assay: flow cytometry (FACS Geomean) titration on A549 non-small cell lung cancer cells; the table under the plot prints no unit, nM is the unit of the x axis 'Ab conc in nM'
[7] = molecular target: human CADM1 (cell surface, on CADM1-expressing human tumour cells and tissues) (human) (UniProt Q9BY67); assay: flow cytometry (FGMI) titration on SkMel28 melanoma cells; table under the plot
[8] = molecular target: human CADM1 (cell surface, on CADM1-expressing human tumour cells and tissues) (human) (UniProt Q9BY67); assay: flow cytometry histogram on 786-0 cells
[9] = molecular target: human CADM1 (cell surface, on CADM1-expressing human tumour cells and tissues) (human) (UniProt Q9BY67); assay: flow cytometry histogram on SKMEL28 cells
[10] = molecular target: human CADM1 (cell surface, on CADM1-expressing human tumour cells and tissues) (human) (UniProt Q9BY67); assay: flow cytometry (FACS Geomean) titration on SKOV3 ovarian cancer cells; the table under the plot prints no unit, nM is the unit of the x axis 'Ab conc in nM'
[11] = molecular target: human CADM1 (cell surface, on CADM1-expressing human tumour cells and tissues) (human) (UniProt Q9BY67); assay: flow cytometry (FACS Geomean) titration on A549 non-small cell lung cancer cells

Chain of UniProt Q9BY67 (Q9BY67 45-442): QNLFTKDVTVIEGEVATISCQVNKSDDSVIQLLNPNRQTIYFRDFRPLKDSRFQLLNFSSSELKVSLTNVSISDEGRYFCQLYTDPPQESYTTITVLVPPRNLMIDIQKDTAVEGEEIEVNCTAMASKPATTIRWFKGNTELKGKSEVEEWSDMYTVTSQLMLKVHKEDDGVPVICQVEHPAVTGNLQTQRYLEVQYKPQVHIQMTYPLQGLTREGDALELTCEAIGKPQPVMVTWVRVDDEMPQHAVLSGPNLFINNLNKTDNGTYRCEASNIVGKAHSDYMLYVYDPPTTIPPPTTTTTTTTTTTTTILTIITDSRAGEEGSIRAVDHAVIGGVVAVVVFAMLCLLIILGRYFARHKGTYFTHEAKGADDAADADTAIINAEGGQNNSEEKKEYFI

number in the histogram legend box (name not given; axis FL2-H) [1]: 10.5
number in the histogram legend box (name not given; axis FL2-H) [2]: 8.39
% Specific Lysis: DMS79 (ADCC) [3]: 2.96%
% Specific Lysis: NCI-H69 (ADCC) [3]: 3.3%
Molecule: Isotype Control (antibody)

% Specific Lysis: DMS79 (ADCC) [3]: 37.8%
% Specific Lysis: NCI-H69 (ADCC) [3]: 24.6%
EC50 [4]: 0.588 nM
B1: PTA021_A1 human monoclonal antibody (antibody, V domains shown)
VH: QITLKESGPTLVKPTQTLTLTCTFSGFSLNTSGVGVGWIRQPPGKALEWLALIYWDDDKRYSPSLKSRLTITKDTSKNQVVLTMTNMDPVDTATYYCAHRRVEWVALAGNWFDPWGQGTLVTVSS
VL: DIQMTQSPSSLSASVGDRVTITCRASQGISSWLAWYQQKPEKAPKSLIYGASSLQSGVPSRFSGSGSGTDFTLTISNLQPEDFATYYCQQYNSYPLTFGGGTKVEIK

% Specific Lysis: DMS79 (ADCC) [3]: 34.7%
% Specific Lysis: NCI-H69 (ADCC) [3]: 15.9%
EC50 [4]: 0.667 nM
B2: PTA021_A2 human monoclonal antibody (antibody, V domains shown)
VH: B1 VH with N30S, T94I, V105F, T119S
VL: B1 VL with G50A, N77S

EC50 [5]: 3.25 nM
EC50 [6]: 3.65 nM
EC50 [7]: 4.42 nM
number in the histogram legend box (name not given; axis FL2-H) [8]: 42.6
number in the histogram legend box (name not given; axis FL2-H) [9]: 25.9
EC50 [10]: 12.6 nM
% Specific Lysis: DMS79 (ADCC) [3]: 61%
% Specific Lysis: NCI-H69 (ADCC) [3]: 29.8%
EC50 [4]: 0.674 nM
EC50 (read off the curve) [11]: 4 nM
B3: PTA021_A3 human monoclonal antibody (antibody, V domains shown)
VH: B1 VH with N30S, A106T
VL: B1 VL with G50A
